Assay results published in patent publication US20140087995A1 (published 2014).
Numbered stars: 1 amine (or outer) side, 2 acyl side, 3 side chain; on linkers, the order of the positions; unused ones are H or OH. Bridge positions count the residues as written; N and C are the ends. Side chains are listed from the residue outwards. Ends that are not written are not given here. * marks the point of attachment. C20 diacid = O=C(O)CCCCCCCCCCCCCCCCCCC(=O)*; γGlu = O=C(O)[C@H](CCC(=O)[*:2])N[*:1]; AEEA = NCCOCCOCC(=O)O

T1: human calcitonin receptor (human, UniProt P30988 25-474)
T1 construct: whole, on cells; Assayed as cell membranes of BHK tk'ts 13 cells stably transfected with the human calcitonin receptor (Assay VII); also called hCTR; hCT
T1 sequence (looked up): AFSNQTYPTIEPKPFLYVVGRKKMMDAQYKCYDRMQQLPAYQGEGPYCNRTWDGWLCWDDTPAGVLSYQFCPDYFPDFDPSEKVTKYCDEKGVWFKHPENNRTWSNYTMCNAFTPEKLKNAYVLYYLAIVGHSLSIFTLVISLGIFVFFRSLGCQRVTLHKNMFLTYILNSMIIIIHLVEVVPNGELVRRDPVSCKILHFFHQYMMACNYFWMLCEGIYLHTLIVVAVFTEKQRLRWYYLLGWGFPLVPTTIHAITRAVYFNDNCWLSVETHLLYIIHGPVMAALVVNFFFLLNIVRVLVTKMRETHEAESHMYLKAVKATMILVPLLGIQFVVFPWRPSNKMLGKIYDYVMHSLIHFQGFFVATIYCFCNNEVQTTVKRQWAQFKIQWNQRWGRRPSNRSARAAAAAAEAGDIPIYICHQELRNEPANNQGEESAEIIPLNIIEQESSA


Columns and labels:
[1] = molecular target: T1, human calcitonin receptor; assay: IC50 at hCTR divided by IC50 at hAmylin-R (SPA competition assays V and VII)
Method in brief: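 Membranes (35 ng/μL final) + SPA beads, 50 mM Hepes pH 7.4 buffer with 1 mM CaCl2, 5 mM MgCl₂, 0.1% OA, 0.02% Tween20; 120 min, 25° C, shaking; centrifuged, counted; IC₅₀ by one-site binding competition.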

[2] = molecular target: T1, human calcitonin receptor; assay: SPA competition vs 125I-calcitonin, membranes of BHK cells with human calcitonin receptor (Assay VII)
Method in brief: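 BHK hCTR membranes 35 ng/μL + SPA beads 0.05 mg/well; buffer 50 mM Hepes pH 7.4, 1 mM CaCl2, 5 mM MgCl₂, 0.1% OA, 0.02% Tween20. 120 min, 25° C., shaking. Scintillation count; IC50 by one-site binding competition.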

Binder | Ratio hCT/hAmylin binding [1] | IC50 [2]
K([AEEA-γGlu-C20 diacid])CNTATCATQRLAGFLRHSSPNFGAIPSSTPVGSNTY-NH2 (disulfide 2-7; N-terminus assumed; SMILES CC[C@H](C)[C@H](NC(=O)[C@H](C)NC(=O)CNC(=O)[C@H](Cc1ccccc1)NC(=O)[C@H](CC(N)=O)NC(=O)[C@@H]1CCCN1C(=O)[C@H](CO)NC(=O)[C@H](CO)NC(=O)[C@H](Cc1c[nH]cn1)NC(=O)[C@H](CCCNC(=N)N)NC(=O)[C@H](CC(C)C)NC(=O)[C@H](Cc1ccccc1)NC(=O)CNC(=O)[C@H](C)NC(=O)[C@H](CC(C)C)NC(=O)[C@H](CCCNC(=N)N)NC(=O)[C@H](CCC(N)=O)NC(=O)[C@@H](NC(=O)[C@H](C)NC(=O)[C@@H]1CSSC[C@H](NC(=O)[C@@H](N)CCCCNC(=O)COCCOCCNC(=O)CC[C@H](NC(=O)CCCCCCCCCCCCCCCCCCC(=O)O)C(=O)O)C(=O)N[C@@H](CC(N)=O)C(=O)N[C@@H]([C@@H](C)O)C(=O)N[C@@H](C)C(=O)N[C@@H]([C@@H](C)O)C(=O)N1)[C@@H](C)O)C(=O)N1CCC[C@H]1C(=O)N[C@@H](CO)C(=O)N[C@@H](CO)C(=O)N[C@H](C(=O)N1CCC[C@H]1C(=O)N[C@H](C(=O)NCC(=O)N[C@@H](CO)C(=O)N[C@@H](CC(N)=O)C(=O)N[C@H](C(=O)N[C@@H](Cc1ccc(O)cc1)C(N)=O)[C@@H](C)O)C(C)C)[C@@H](C)O, also called compound 71) | 32 | 1.53 nM
K([AEEA-γGlu-C20 diacid])CNTATCATQRLAHFLRHSSPNFGAIPSSTPVGSNTY-NH2 (disulfide 2-7; N-terminus assumed; SMILES CC[C@H](C)[C@H](NC(=O)[C@H](C)NC(=O)CNC(=O)[C@H](Cc1ccccc1)NC(=O)[C@H](CC(N)=O)NC(=O)[C@@H]1CCCN1C(=O)[C@H](CO)NC(=O)[C@H](CO)NC(=O)[C@H](Cc1c[nH]cn1)NC(=O)[C@H](CCCNC(=N)N)NC(=O)[C@H](CC(C)C)NC(=O)[C@H](Cc1ccccc1)NC(=O)[C@H](Cc1c[nH]cn1)NC(=O)[C@H](C)NC(=O)[C@H](CC(C)C)NC(=O)[C@H](CCCNC(=N)N)NC(=O)[C@H](CCC(N)=O)NC(=O)[C@@H](NC(=O)[C@H](C)NC(=O)[C@@H]1CSSC[C@H](NC(=O)[C@@H](N)CCCCNC(=O)COCCOCCNC(=O)CC[C@H](NC(=O)CCCCCCCCCCCCCCCCCCC(=O)O)C(=O)O)C(=O)N[C@@H](CC(N)=O)C(=O)N[C@@H]([C@@H](C)O)C(=O)N[C@@H](C)C(=O)N[C@@H]([C@@H](C)O)C(=O)N1)[C@@H](C)O)C(=O)N1CCC[C@H]1C(=O)N[C@@H](CO)C(=O)N[C@@H](CO)C(=O)N[C@H](C(=O)N1CCC[C@H]1C(=O)N[C@H](C(=O)NCC(=O)N[C@@H](CO)C(=O)N[C@@H](CC(N)=O)C(=O)N[C@H](C(=O)N[C@@H](Cc1ccc(O)cc1)C(N)=O)[C@@H](C)O)C(C)C)[C@@H](C)O, also called compound 61) | 66.7 | 8.11 nM
K([AEEA-γGlu-C20 diacid])CNTATCATQRLAHFLRHSSPNFGAIPSSTNVGHNTY-NH2 (disulfide 2-7; N-terminus assumed; SMILES CC[C@H](C)[C@H](NC(=O)[C@H](C)NC(=O)CNC(=O)[C@H](Cc1ccccc1)NC(=O)[C@H](CC(N)=O)NC(=O)[C@@H]1CCCN1C(=O)[C@H](CO)NC(=O)[C@H](CO)NC(=O)[C@H](Cc1c[nH]cn1)NC(=O)[C@H](CCCNC(=N)N)NC(=O)[C@H](CC(C)C)NC(=O)[C@H](Cc1ccccc1)NC(=O)[C@H](Cc1c[nH]cn1)NC(=O)[C@H](C)NC(=O)[C@H](CC(C)C)NC(=O)[C@H](CCCNC(=N)N)NC(=O)[C@H](CCC(N)=O)NC(=O)[C@@H](NC(=O)[C@H](C)NC(=O)[C@@H]1CSSC[C@H](NC(=O)[C@@H](N)CCCCNC(=O)COCCOCCNC(=O)CC[C@H](NC(=O)CCCCCCCCCCCCCCCCCCC(=O)O)C(=O)O)C(=O)N[C@@H](CC(N)=O)C(=O)N[C@@H]([C@@H](C)O)C(=O)N[C@@H](C)C(=O)N[C@@H]([C@@H](C)O)C(=O)N1)[C@@H](C)O)C(=O)N1CCC[C@H]1C(=O)N[C@@H](CO)C(=O)N[C@@H](CO)C(=O)N[C@H](C(=O)N[C@@H](CC(N)=O)C(=O)N[C@H](C(=O)NCC(=O)N[C@@H](Cc1c[nH]cn1)C(=O)N[C@@H](CC(N)=O)C(=O)N[C@H](C(=O)N[C@@H](Cc1ccc(O)cc1)C(N)=O)[C@@H](C)O)C(C)C)[C@@H](C)O, also called compound 80) | 68.1 | 19.8 nM
K([AEEA-γGlu-C20 diacid])CNTATCATQRLAKFLRHSSPNFGAIPSSTPVGSNTY-NH2 (disulfide 2-7; N-terminus assumed; SMILES CC[C@H](C)[C@H](NC(=O)[C@H](C)NC(=O)CNC(=O)[C@H](Cc1ccccc1)NC(=O)[C@H](CC(N)=O)NC(=O)[C@@H]1CCCN1C(=O)[C@H](CO)NC(=O)[C@H](CO)NC(=O)[C@H](Cc1c[nH]cn1)NC(=O)[C@H](CCCNC(=N)N)NC(=O)[C@H](CC(C)C)NC(=O)[C@H](Cc1ccccc1)NC(=O)[C@H](CCCCN)NC(=O)[C@H](C)NC(=O)[C@H](CC(C)C)NC(=O)[C@H](CCCNC(=N)N)NC(=O)[C@H](CCC(N)=O)NC(=O)[C@@H](NC(=O)[C@H](C)NC(=O)[C@@H]1CSSC[C@H](NC(=O)[C@@H](N)CCCCNC(=O)COCCOCCNC(=O)CC[C@H](NC(=O)CCCCCCCCCCCCCCCCCCC(=O)O)C(=O)O)C(=O)N[C@@H](CC(N)=O)C(=O)N[C@@H]([C@@H](C)O)C(=O)N[C@@H](C)C(=O)N[C@@H]([C@@H](C)O)C(=O)N1)[C@@H](C)O)C(=O)N1CCC[C@H]1C(=O)N[C@@H](CO)C(=O)N[C@@H](CO)C(=O)N[C@H](C(=O)N1CCC[C@H]1C(=O)N[C@H](C(=O)NCC(=O)N[C@@H](CO)C(=O)N[C@@H](CC(N)=O)C(=O)N[C@H](C(=O)N[C@@H](Cc1ccc(O)cc1)C(N)=O)[C@@H](C)O)C(C)C)[C@@H](C)O, also called compound 74) | 101 | 79.9 nM
K([AEEA-γGlu-C20 diacid])CNTATCATQRLAHFLRHSSPNFGAIPSSTNVGRNTY-NH2 (disulfide 2-7; N-terminus assumed; SMILES CC[C@H](C)[C@H](NC(=O)[C@H](C)NC(=O)CNC(=O)[C@H](Cc1ccccc1)NC(=O)[C@H](CC(N)=O)NC(=O)[C@@H]1CCCN1C(=O)[C@H](CO)NC(=O)[C@H](CO)NC(=O)[C@H](Cc1c[nH]cn1)NC(=O)[C@H](CCCNC(=N)N)NC(=O)[C@H](CC(C)C)NC(=O)[C@H](Cc1ccccc1)NC(=O)[C@H](Cc1c[nH]cn1)NC(=O)[C@H](C)NC(=O)[C@H](CC(C)C)NC(=O)[C@H](CCCNC(=N)N)NC(=O)[C@H](CCC(N)=O)NC(=O)[C@@H](NC(=O)[C@H](C)NC(=O)[C@@H]1CSSC[C@H](NC(=O)[C@@H](N)CCCCNC(=O)COCCOCCNC(=O)CC[C@H](NC(=O)CCCCCCCCCCCCCCCCCCC(=O)O)C(=O)O)C(=O)N[C@@H](CC(N)=O)C(=O)N[C@@H]([C@@H](C)O)C(=O)N[C@@H](C)C(=O)N[C@@H]([C@@H](C)O)C(=O)N1)[C@@H](C)O)C(=O)N1CCC[C@H]1C(=O)N[C@@H](CO)C(=O)N[C@@H](CO)C(=O)N[C@H](C(=O)N[C@@H](CC(N)=O)C(=O)N[C@H](C(=O)NCC(=O)N[C@@H](CCCNC(=N)N)C(=O)N[C@@H](CC(N)=O)C(=O)N[C@H](C(=O)N[C@@H](Cc1ccc(O)cc1)C(N)=O)[C@@H](C)O)C(C)C)[C@@H](C)O, also called compound 84) | 120 | 88.9 nM
K([AEEA-γGlu-C20 diacid])CNTATCATQRLAHFLRHSSPNFGAIPSSTNVGPNTY-NH2 (disulfide 2-7; N-terminus assumed; SMILES CC[C@H](C)[C@H](NC(=O)[C@H](C)NC(=O)CNC(=O)[C@H](Cc1ccccc1)NC(=O)[C@H](CC(N)=O)NC(=O)[C@@H]1CCCN1C(=O)[C@H](CO)NC(=O)[C@H](CO)NC(=O)[C@H](Cc1c[nH]cn1)NC(=O)[C@H](CCCNC(=N)N)NC(=O)[C@H](CC(C)C)NC(=O)[C@H](Cc1ccccc1)NC(=O)[C@H](Cc1c[nH]cn1)NC(=O)[C@H](C)NC(=O)[C@H](CC(C)C)NC(=O)[C@H](CCCNC(=N)N)NC(=O)[C@H](CCC(N)=O)NC(=O)[C@@H](NC(=O)[C@H](C)NC(=O)[C@@H]1CSSC[C@H](NC(=O)[C@@H](N)CCCCNC(=O)COCCOCCNC(=O)CC[C@H](NC(=O)CCCCCCCCCCCCCCCCCCC(=O)O)C(=O)O)C(=O)N[C@@H](CC(N)=O)C(=O)N[C@@H]([C@@H](C)O)C(=O)N[C@@H](C)C(=O)N[C@@H]([C@@H](C)O)C(=O)N1)[C@@H](C)O)C(=O)N1CCC[C@H]1C(=O)N[C@@H](CO)C(=O)N[C@@H](CO)C(=O)N[C@H](C(=O)N[C@@H](CC(N)=O)C(=O)N[C@H](C(=O)NCC(=O)N1CCC[C@H]1C(=O)N[C@@H](CC(N)=O)C(=O)N[C@H](C(=O)N[C@@H](Cc1ccc(O)cc1)C(N)=O)[C@@H](C)O)C(C)C)[C@@H](C)O, also called compound 68) | 64.4 | 5.66 nM
